Data set [1] concerns the target T1, SCO3205 (MarR family regulator) (Streptomyces coelicolor, UniProt Q9KYU1 1-163).
T1 sequence: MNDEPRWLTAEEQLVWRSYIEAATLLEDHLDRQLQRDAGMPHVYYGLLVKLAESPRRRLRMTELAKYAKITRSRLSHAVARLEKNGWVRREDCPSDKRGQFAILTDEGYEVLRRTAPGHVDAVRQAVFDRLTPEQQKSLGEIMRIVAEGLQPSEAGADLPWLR
In words: crystal structure; 2.8 A; one dimer per duplex; SPR (ReDCaT, Biacore T200) in HBS-EP+: 10 mM HEPES pH 7.4, 150 mM NaCl, 3 mM EDTA, 0.05% P20, 20°C. Conditions: protein: recombinant; tags: N-terminal His tag plus TEV site, not removed; chain copies: 2; blunt; self-complementary, 2 copies. On the technique in general: SPR reads the build-up and loss of mass on a sensor chip optically.

Data set [2] concerns the molecule itself. In words: not stated; purified SCO3205 in solution; the method is told only in the Supplementary Methods.

The values below come from article PMC3737563, “Investigation of DNA sequence recognition by a streptomycete MarR family transcriptional regulator through surface plasmon resonance and X-ray crystallography” (Nucleic Acids Research, 2013).

Usually stoichiometry N stands for the number of molecules, sites or subunits per partner or assembly.

B1: symmetrized O3204 22-mer (dsDNA)
DNA 1: AAAGATTGAGATCTCAATCTTT
DNA 2: AAAGATTGAGATCTCAATCTTT
Take B1: the binding result in data set [1] is on record as “binds”.

B2: SCO3205, MarR family transcriptional regulator from Streptomyces coelicolor (natural protein, UniProt Q9KYU1 1-163, looked up)
chain: T1 sequence
notes: SCO3205, MarR family transcriptional regulator, Streptomyces coelicolor; the tag was not removed for any experiment; Total deduced molecular mass 20523 Da; also called MFR; source: E. coli BL21 (DE3), purified (HisTrap nickel column, Superdex 75 gel filtration); not shown: His tag, N-terminal, kept
Regarding B2, the “stoichiometry N” value in data set [2] was determined as 2.
